Measured values reported in patent US20140087995A1 (published 2014).
Numbered stars: 1 amine (or outer) side, 2 acyl side, 3 side chain; on linkers, the order of the positions; unused ones are H or OH. Bridge positions count the residues as written; N and C are the ends. Side chains are listed from the residue outwards. Ends that are not written are not given here. * marks the point of attachment. C20 diacid = O=C(O)CCCCCCCCCCCCCCCCCCC(=O)*; γGlu = O=C(O)[C@H](CCC(=O)[*:2])N[*:1]

T1: human calcitonin receptor (human, UniProt P30988 25-474)
T1 construct: whole, on cells; Assay used cell membranes, not intact cells; also called hCTR; hCT
T1 sequence (looked up): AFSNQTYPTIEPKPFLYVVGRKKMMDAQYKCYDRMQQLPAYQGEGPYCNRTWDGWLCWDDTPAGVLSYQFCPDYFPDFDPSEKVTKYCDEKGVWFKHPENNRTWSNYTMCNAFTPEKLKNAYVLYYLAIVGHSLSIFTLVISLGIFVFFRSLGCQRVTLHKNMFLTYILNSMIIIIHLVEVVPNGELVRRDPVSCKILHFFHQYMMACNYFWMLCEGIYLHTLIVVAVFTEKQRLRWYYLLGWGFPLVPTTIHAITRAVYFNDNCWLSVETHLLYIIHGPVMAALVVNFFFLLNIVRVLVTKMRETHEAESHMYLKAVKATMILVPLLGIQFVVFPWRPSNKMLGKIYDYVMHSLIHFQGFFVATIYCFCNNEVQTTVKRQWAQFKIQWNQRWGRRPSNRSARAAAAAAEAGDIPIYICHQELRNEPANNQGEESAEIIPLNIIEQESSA

T2: human amylin receptor (amylin 3(a) receptor: human calcitonin receptor with RAMP-3) (human, UniProt P30988 25-474; O60896 24-148)
T2 construct: whole, on cells; Assay used cell membranes of the Amylin 3(a)/CRE-luc BHK cells, not intact cells; also called hAmylin-R; hAmylinR
T2 sequence (looked up) 1: T1 sequence (looked up)
T2 sequence (looked up) 2: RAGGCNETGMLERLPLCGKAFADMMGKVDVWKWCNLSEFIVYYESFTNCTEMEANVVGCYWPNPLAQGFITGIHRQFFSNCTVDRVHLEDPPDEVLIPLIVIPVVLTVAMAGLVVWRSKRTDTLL

B1: N^ε1-[(4S)-4-carboxy-4-(19-carboxynonadecanoylamino)butanoyl]-[Arg14,Arg17,Pro21,Pro27]-h-amylin (peptide)
peptide: K([γGlu-C20 diacid])CNTATCATQRLARFLRHSSPNFGAIPSSTNVGSNTY-NH2
modifications: disulfide 2-7; N-terminus assumed
SMILES: CC[C@H](C)[C@H](NC(=O)[C@H](C)NC(=O)CNC(=O)[C@H](Cc1ccccc1)NC(=O)[C@H](CC(N)=O)NC(=O)[C@@H]1CCCN1C(=O)[C@H](CO)NC(=O)[C@H](CO)NC(=O)[C@H](Cc1c[nH]cn1)NC(=O)[C@H](CCCNC(=N)N)NC(=O)[C@H](CC(C)C)NC(=O)[C@H](Cc1ccccc1)NC(=O)[C@H](CCCNC(=N)N)NC(=O)[C@H](C)NC(=O)[C@H](CC(C)C)NC(=O)[C@H](CCCNC(=N)N)NC(=O)[C@H](CCC(N)=O)NC(=O)[C@@H](NC(=O)[C@H](C)NC(=O)[C@@H]1CSSC[C@H](NC(=O)[C@@H](N)CCCCNC(=O)CC[C@H](NC(=O)CCCCCCCCCCCCCCCCCCC(=O)O)C(=O)O)C(=O)N[C@@H](CC(N)=O)C(=O)N[C@@H]([C@@H](C)O)C(=O)N[C@@H](C)C(=O)N[C@@H]([C@@H](C)O)C(=O)N1)[C@@H](C)O)C(=O)N1CCC[C@H]1C(=O)N[C@@H](CO)C(=O)N[C@@H](CO)C(=O)N[C@H](C(=O)N[C@@H](CC(N)=O)C(=O)N[C@H](C(=O)NCC(=O)N[C@@H](CO)C(=O)N[C@@H](CC(N)=O)C(=O)N[C@H](C(=O)N[C@@H](Cc1ccc(O)cc1)C(N)=O)[C@@H](C)O)C(C)C)[C@@H](C)O
notes: also called compound 83
B2: N^ε1-[(4S)-4-carboxy-4-(19-carboxynonadecanoylamino)butanoyl]-[Glu14,Arg17,Pro21,Pro27,Arg34,Glu35]-h-amylin (peptide)
peptide: K([γGlu-C20 diacid])CNTATCATQRLAEFLRHSSPNFGAIPSSTNVGRETY-NH2
modifications: disulfide 2-7; N-terminus assumed
SMILES: CC[C@H](C)[C@H](NC(=O)[C@H](C)NC(=O)CNC(=O)[C@H](Cc1ccccc1)NC(=O)[C@H](CC(N)=O)NC(=O)[C@@H]1CCCN1C(=O)[C@H](CO)NC(=O)[C@H](CO)NC(=O)[C@H](Cc1c[nH]cn1)NC(=O)[C@H](CCCNC(=N)N)NC(=O)[C@H](CC(C)C)NC(=O)[C@H](Cc1ccccc1)NC(=O)[C@H](CCC(=O)O)NC(=O)[C@H](C)NC(=O)[C@H](CC(C)C)NC(=O)[C@H](CCCNC(=N)N)NC(=O)[C@H](CCC(N)=O)NC(=O)[C@@H](NC(=O)[C@H](C)NC(=O)[C@@H]1CSSC[C@H](NC(=O)[C@@H](N)CCCCNC(=O)CC[C@H](NC(=O)CCCCCCCCCCCCCCCCCCC(=O)O)C(=O)O)C(=O)N[C@@H](CC(N)=O)C(=O)N[C@@H]([C@@H](C)O)C(=O)N[C@@H](C)C(=O)N[C@@H]([C@@H](C)O)C(=O)N1)[C@@H](C)O)C(=O)N1CCC[C@H]1C(=O)N[C@@H](CO)C(=O)N[C@@H](CO)C(=O)N[C@H](C(=O)N[C@@H](CC(N)=O)C(=O)N[C@H](C(=O)NCC(=O)N[C@@H](CCCNC(=N)N)C(=O)N[C@@H](CCC(=O)O)C(=O)N[C@H](C(=O)N[C@@H](Cc1ccc(O)cc1)C(N)=O)[C@@H](C)O)C(C)C)[C@@H](C)O
B3: N^ε1-[(4S)-4-carboxy-4-(19-carboxynonadecanoylamino)butanoyl]-[Arg17,Pro21,Pro27,His34]-h-amylin (peptide)
peptide: K([γGlu-C20 diacid])CNTATCATQRLANFLRHSSPNFGAIPSSTNVGHNTY-NH2
modifications: disulfide 2-7; N-terminus assumed
SMILES: CC[C@H](C)[C@H](NC(=O)[C@H](C)NC(=O)CNC(=O)[C@H](Cc1ccccc1)NC(=O)[C@H](CC(N)=O)NC(=O)[C@@H]1CCCN1C(=O)[C@H](CO)NC(=O)[C@H](CO)NC(=O)[C@H](Cc1c[nH]cn1)NC(=O)[C@H](CCCNC(=N)N)NC(=O)[C@H](CC(C)C)NC(=O)[C@H](Cc1ccccc1)NC(=O)[C@H](CC(N)=O)NC(=O)[C@H](C)NC(=O)[C@H](CC(C)C)NC(=O)[C@H](CCCNC(=N)N)NC(=O)[C@H](CCC(N)=O)NC(=O)[C@@H](NC(=O)[C@H](C)NC(=O)[C@@H]1CSSC[C@H](NC(=O)[C@@H](N)CCCCNC(=O)CC[C@H](NC(=O)CCCCCCCCCCCCCCCCCCC(=O)O)C(=O)O)C(=O)N[C@@H](CC(N)=O)C(=O)N[C@@H]([C@@H](C)O)C(=O)N[C@@H](C)C(=O)N[C@@H]([C@@H](C)O)C(=O)N1)[C@@H](C)O)C(=O)N1CCC[C@H]1C(=O)N[C@@H](CO)C(=O)N[C@@H](CO)C(=O)N[C@H](C(=O)N[C@@H](CC(N)=O)C(=O)N[C@H](C(=O)NCC(=O)N[C@@H](Cc1c[nH]cn1)C(=O)N[C@@H](CC(N)=O)C(=O)N[C@H](C(=O)N[C@@H](Cc1ccc(O)cc1)C(N)=O)[C@@H](C)O)C(C)C)[C@@H](C)O
notes: also called compound 77
B4: N^ε1-[(4S)-4-carboxy-4-(19-carboxynonadecanoylamino)butanoyl]-[Asp14,Arg17,Pro21,Pro27,Pro34,Arg35]-h-amylin (peptide)
peptide: K([γGlu-C20 diacid])CNTATCATQRLADFLRHSSPNFGAIPSSTNVGPRTY-NH2
modifications: disulfide 2-7; N-terminus assumed
SMILES: CC[C@H](C)[C@H](NC(=O)[C@H](C)NC(=O)CNC(=O)[C@H](Cc1ccccc1)NC(=O)[C@H](CC(N)=O)NC(=O)[C@@H]1CCCN1C(=O)[C@H](CO)NC(=O)[C@H](CO)NC(=O)[C@H](Cc1c[nH]cn1)NC(=O)[C@H](CCCNC(=N)N)NC(=O)[C@H](CC(C)C)NC(=O)[C@H](Cc1ccccc1)NC(=O)[C@H](CC(=O)O)NC(=O)[C@H](C)NC(=O)[C@H](CC(C)C)NC(=O)[C@H](CCCNC(=N)N)NC(=O)[C@H](CCC(N)=O)NC(=O)[C@@H](NC(=O)[C@H](C)NC(=O)[C@@H]1CSSC[C@H](NC(=O)[C@@H](N)CCCCNC(=O)CC[C@H](NC(=O)CCCCCCCCCCCCCCCCCCC(=O)O)C(=O)O)C(=O)N[C@@H](CC(N)=O)C(=O)N[C@@H]([C@@H](C)O)C(=O)N[C@@H](C)C(=O)N[C@@H]([C@@H](C)O)C(=O)N1)[C@@H](C)O)C(=O)N1CCC[C@H]1C(=O)N[C@@H](CO)C(=O)N[C@@H](CO)C(=O)N[C@H](C(=O)N[C@@H](CC(N)=O)C(=O)N[C@H](C(=O)NCC(=O)N1CCC[C@H]1C(=O)N[C@@H](CCCNC(=N)N)C(=O)N[C@H](C(=O)N[C@@H](Cc1ccc(O)cc1)C(N)=O)[C@@H](C)O)C(C)C)[C@@H](C)O
B5: N^ε1-[(4S)-4-carboxy-4-(19-carboxynonadecanoylamino)butanoyl]-[Arg17,Pro21,Pro27,Arg34]-h-amylin (peptide)
peptide: K([γGlu-C20 diacid])CNTATCATQRLANFLRHSSPNFGAIPSSTNVGRNTY-NH2
modifications: disulfide 2-7; N-terminus assumed
SMILES: CC[C@H](C)[C@H](NC(=O)[C@H](C)NC(=O)CNC(=O)[C@H](Cc1ccccc1)NC(=O)[C@H](CC(N)=O)NC(=O)[C@@H]1CCCN1C(=O)[C@H](CO)NC(=O)[C@H](CO)NC(=O)[C@H](Cc1c[nH]cn1)NC(=O)[C@H](CCCNC(=N)N)NC(=O)[C@H](CC(C)C)NC(=O)[C@H](Cc1ccccc1)NC(=O)[C@H](CC(N)=O)NC(=O)[C@H](C)NC(=O)[C@H](CC(C)C)NC(=O)[C@H](CCCNC(=N)N)NC(=O)[C@H](CCC(N)=O)NC(=O)[C@@H](NC(=O)[C@H](C)NC(=O)[C@@H]1CSSC[C@H](NC(=O)[C@@H](N)CCCCNC(=O)CC[C@H](NC(=O)CCCCCCCCCCCCCCCCCCC(=O)O)C(=O)O)C(=O)N[C@@H](CC(N)=O)C(=O)N[C@@H]([C@@H](C)O)C(=O)N[C@@H](C)C(=O)N[C@@H]([C@@H](C)O)C(=O)N1)[C@@H](C)O)C(=O)N1CCC[C@H]1C(=O)N[C@@H](CO)C(=O)N[C@@H](CO)C(=O)N[C@H](C(=O)N[C@@H](CC(N)=O)C(=O)N[C@H](C(=O)NCC(=O)N[C@@H](CCCNC(=N)N)C(=O)N[C@@H](CC(N)=O)C(=O)N[C@H](C(=O)N[C@@H](Cc1ccc(O)cc1)C(N)=O)[C@@H](C)O)C(C)C)[C@@H](C)O
notes: also called compound 79

Each binder was assayed against T1, human calcitonin receptor (assay: ratio IC50 hCTR / IC50 hAmylin-R (reference: human amylin receptor), SPA competition assays).
Procedure, shortened: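 Scintillation proximity competition binding on cell membranes at 35 ng/μL with SPA beads, in 50 mM Hepes pH 7.4, 1 mM CaCl2, 5 mM MgCl₂, 0.1% OA, 0.02% Tween20. Incubated 120 min at 25° C with shaking. IC₅₀ from one-site competition fit.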

First: B1
Second: B2
The “Ratio hCT/hAmylin binding” value of the first is higher: 146 for the first, 28.5 for the second.

Compared with B3, B4 is higher in “Ratio hCT/hAmylin binding” value: 118 for the first, 151 for the second.

In the case of B5, the “Ratio hCT/hAmylin binding” value is reported as 46.1.

What follows are binders tested against T1, human calcitonin receptor (assay: SPA competition with 125I-calcitonin on membranes of BHK cells with human calcitonin receptor (Assay VII)).
Procedure, shortened: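 BHK hCTR membranes 35 ng/μL + SPA beads 0.05 mg/well; buffer 50 mM Hepes pH 7.4, 1 mM CaCl2, 5 mM MgCl₂, 0.1% OA, 0.02% Tween20. 120 min, 25° C., shaking. Scintillation count; IC50 by one-site binding competition.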

First: B1
Second: B2
The IC50 of the first is 21-fold higher: 137 nM for the first, 6.62 nM for the second. The second is the more potent here.

B3 and B4 are within 1.5-fold of each other in IC50: 50.7 nM for the first, 42.5 nM for the second.

Binder B5 has an IC50 of 36.4 nM.

The binders below were run against T2, human amylin receptor (amylin 3(a) …) (assay: SPA competition with 125I-rat amylin on membranes of BHK cells with human calcitonin receptor and RAMP-3 (Assay V)).
Procedure, shortened: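 Membranes from BHK Amylin 3(a)/CRE-luc cells (35 ng/μL final) were mixed with SPA beads and test compounds in 50 mM Hepes pH 7.4 with 1 mM CaCl2, 5 mM MgCl₂, 0.1% OA and 0.02% Tween20. Incubation ran 120 min at 25° C with shaking; IC₅₀ came from one-site competition fitting.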

First: B1
Second: B2
The IC50 of the first is 4-fold higher: 0.939 nM for the first, 0.232 nM for the second.

Going from B3 to B4, the IC50 falls from 0.428 nM to 0.281 nM (1.5-fold). The second is the more potent here.

B5 gave an IC50 of 0.79 nM.
